T1: human TL1A extracellular domain with N-terminal HIS and FLAG tag (human, UniProt O95150 72-251)
T1 construct: the whole entry is named; also called TNFSF15
T1 sequence: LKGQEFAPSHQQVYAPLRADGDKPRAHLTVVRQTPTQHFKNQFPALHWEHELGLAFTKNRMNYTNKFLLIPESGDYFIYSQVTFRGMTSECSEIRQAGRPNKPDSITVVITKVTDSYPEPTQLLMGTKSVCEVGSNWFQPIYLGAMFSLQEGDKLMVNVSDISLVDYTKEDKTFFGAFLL


Columns and labels:
[1] = target: T1, human TL1A extracellular domain with …; experiment: SPR Run 7, antibody on Protein A, TL1A 5 ug/mL, timepoint 44
Source text: (§1) 1.5. Antibody expression and antigen binding as determined by SPR. Using a CM5 sensor chip (GE Healthcare) Protein A (Pierce) was coupled to the chip surface using an amine coupling kit (GE Healthcare). Protein A was coupled on flow cell 1 and 2 (or alternatively 3 and 4) using a BIACORE® T200. […] The amount of supernatant or purified protein (as well as the concentration) injected during the capture stage varied between runs and is specified in the header of the Tables 3-11. At the end of injection of the supernatant or purified antibody the change in response units was measured. This value was reported as Capture Level in Tables 3-11. […] The response units were measured prior to the end of the dissociation phase. […] The sensorgrams were double referenced (flow cell 2 is subtracted from flow cell 1 and a buffer blank). As there were a large number of antibody variants to screen, these were screened across different runs (Tables 3-11). […] A summary of the conditions used in each run is below:
(§2) 2.1. […] In some experiment the antibodies were purified using Protein A chromatography (See 1.4) and purified antibodies were used in BIACORE® (GE Healthcare) experiments.

[2] = target: T1, human TL1A extracellular domain with …; experiment: SPR Run 7, antibody on Protein A, TL1A 5 ug/mL, timepoint 220
Source text: as §1, §2

Row | Binder | TL1A Binding Level (Early) [1] [RU] | TL1A Binding Level (Late) [2] [RU]
1 | 320-492 (antibody, human IgG1, name in Kabat numbering, V domains shown, full-length human IgG1, lambda) VH: QVQLVQSGAEVKKPGASVKVSCKASGYTFTSYDINWVRQAPGQGLEWMGWQNPNSGNTGYAQKFQGRVTMTADRSTSTAYMELSSLRSEDTAVYYCAREVPETAAFEYWGQGTLVTVSS VL: QSVLTQPPSVSGAPGQRVTISCTSSSSDIGAGLGVHWYQQLPGTAPKLLIEGYYNRPSGVPDRFSGSKSGTSASLTITGLLPEDEGDYYCQSYDGTLSALFGGGTKLTVLG | 89 | 82
2 | 320-500 (antibody, human IgG1, name in Kabat numbering, V domains shown, full-length human IgG1, lambda) VH: QVQLVQSGAEVKKPGASVKVSCKASGYTFTSYDINWVRQAPGQGLEWMGWLDPNSGNTGYAQKFQGRVTMTADRSTSTAYMELSSLRSEDTAVYYCAREVPETAAFEYWGQGTLVTVSS VL: QSVLTQPPSVSGAPGQRVTISCTSSSSDIGAGLGVHWYQQLPGTAPKLLIEGYYNRPSGVPDRFSGSKSGTSASLTITGLLPEDEGDYYCQSYDGTLSALFGGGTKLTVLG | 69 | 53
3 | 320-498 (antibody, human IgG1, name in Kabat numbering, V domains shown, full-length human IgG1, lambda) VH: QVQLVQSGAEVKKPGASVKVSCKASGYTFTSYDINWVRQAPGQGLEWMGWLSPNSGNTGYAQKFQGRVTMTADRSTSTAYMELSSLRSEDTAVYYCAREVPETAAFEYWGQGTLVTVSS VL: QSVLTQPPSVSGAPGQRVTISCTSSSSDIGAGLGVHWYQQLPGTAPKLLIEGYYNRPSGVPDRFSGSKSGTSASLTITGLLPEDEGDYYCQSYDGTLSALFGGGTKLTVLG | 90 | 82
4 | 320-501 (antibody, human IgG1, name in Kabat numbering, V domains shown, full-length human IgG1, lambda) VH: QVQLVQSGAEVKKPGASVKVSCKASGYTFTSYDINWVRQAPGQGLEWMGWLHPNSGNTGYAQKFQGRVTMTADRSTSTAYMELSSLRSEDTAVYYCAREVPETAAFEYWGQGTLVTVSS VL: QSVLTQPPSVSGAPGQRVTISCTSSSSDIGAGLGVHWYQQLPGTAPKLLIEGYYNRPSGVPDRFSGSKSGTSASLTITGLLPEDEGDYYCQSYDGTLSALFGGGTKLTVLG | 118 | 108
5 | 320-499 (antibody, human IgG1, name in Kabat numbering, V domains shown, full-length human IgG1, lambda) VH: QVQLVQSGAEVKKPGASVKVSCKASGYTFTSYDINWVRQAPGQGLEWMGWLQPNSGNTGYAQKFQGRVTMTADRSTSTAYMELSSLRSEDTAVYYCAREVPETAAFEYWGQGTLVTVSS VL: QSVLTQPPSVSGAPGQRVTISCTSSSSDIGAGLGVHWYQQLPGTAPKLLIEGYYNRPSGVPDRFSGSKSGTSASLTITGLLPEDEGDYYCQSYDGTLSALFGGGTKLTVLG | 122 | 113
6 | 320-493 (antibody, human IgG1, name in Kabat numbering, V domains shown, full-length human IgG1, lambda) VH: QVQLVQSGAEVKKPGASVKVSCKASGYTFTSYDINWVRQAPGQGLEWMGWDNPNSGNTGYAQKFQGRVTMTADRSTSTAYMELSSLRSEDTAVYYCAREVPETAAFEYWGQGTLVTVSS VL: QSVLTQPPSVSGAPGQRVTISCTSSSSDIGAGLGVHWYQQLPGTAPKLLIEGYYNRPSGVPDRFSGSKSGTSASLTITGLLPEDEGDYYCQSYDGTLSALFGGGTKLTVLG | 48 | 46
7 | 320-495 (antibody, human IgG1, name in Kabat numbering, V domains shown, full-length human IgG1, lambda) VH: QVQLVQSGAEVKKPGASVKVSCKASGYTFTSYDINWVRQAPGQGLEWMGWKNPNSGNTGYAQKFQGRVTMTADRSTSTAYMELSSLRSEDTAVYYCAREVPETAAFEYWGQGTLVTVSS VL: QSVLTQPPSVSGAPGQRVTISCTSSSSDIGAGLGVHWYQQLPGTAPKLLIEGYYNRPSGVPDRFSGSKSGTSASLTITGLLPEDEGDYYCQSYDGTLSALFGGGTKLTVLG | 84 | 77
8 | 320-497 (antibody, human IgG1, name in Kabat numbering, V domains shown, full-length human IgG1, lambda) VH: QVQLVQSGAEVKKPGASVKVSCKASGYTFTSYDINWVRQAPGQGLEWMGWLAPNSGNTGYAQKFQGRVTMTADRSTSTAYMELSSLRSEDTAVYYCAREVPETAAFEYWGQGTLVTVSS VL: QSVLTQPPSVSGAPGQRVTISCTSSSSDIGAGLGVHWYQQLPGTAPKLLIEGYYNRPSGVPDRFSGSKSGTSASLTITGLLPEDEGDYYCQSYDGTLSALFGGGTKLTVLG | 135 | 125
9 | 320-496 (antibody, human IgG1, name in Kabat numbering, V domains shown, full-length human IgG1, lambda) VH: QVQLVQSGAEVKKPGASVKVSCKASGYTFTSYDINWVRQAPGQGLEWMGWWNPNSGNTGYAQKFQGRVTMTADRSTSTAYMELSSLRSEDTAVYYCAREVPETAAFEYWGQGTLVTVSS VL: QSVLTQPPSVSGAPGQRVTISCTSSSSDIGAGLGVHWYQQLPGTAPKLLIEGYYNRPSGVPDRFSGSKSGTSASLTITGLLPEDEGDYYCQSYDGTLSALFGGGTKLTVLG | 93 | 87
10 | 320-502 (antibody, human IgG1, name in Kabat numbering, V domains shown, full-length human IgG1, lambda) VH: QVQLVQSGAEVKKPGASVKVSCKASGYTFTSYDINWVRQAPGQGLEWMGWLKPNSGNTGYAQKFQGRVTMTADRSTSTAYMELSSLRSEDTAVYYCAREVPETAAFEYWGQGTLVTVSS VL: QSVLTQPPSVSGAPGQRVTISCTSSSSDIGAGLGVHWYQQLPGTAPKLLIEGYYNRPSGVPDRFSGSKSGTSASLTITGLLPEDEGDYYCQSYDGTLSALFGGGTKLTVLG | 88 | 59
11 | 320-494 (antibody, human IgG1, name in Kabat numbering, V domains shown, full-length human IgG1, lambda) VH: QVQLVQSGAEVKKPGASVKVSCKASGYTFTSYDINWVRQAPGQGLEWMGWHNPNSGNTGYAQKFQGRVTMTADRSTSTAYMELSSLRSEDTAVYYCAREVPETAAFEYWGQGTLVTVSS VL: QSVLTQPPSVSGAPGQRVTISCTSSSSDIGAGLGVHWYQQLPGTAPKLLIEGYYNRPSGVPDRFSGSKSGTSASLTITGLLPEDEGDYYCQSYDGTLSALFGGGTKLTVLG | 150 | 138

The remaining lines, values ahead:

Row | TL1A Binding Level (Early) [1] [RU] | TL1A Binding Level (Late) [2] [RU] | Binder
12 | 19 | 12 | 320-508 (antibody, human IgG1, name in Kabat numbering, V domains shown, full-length human IgG1, lambda) VH: QVQLVQSGAEVKKPGASVKVSCKASGYTFTSYDINWVRQAPGQGLEWMGWLNDNSGNTGYAQKFQGRVTMTADRSTSTAYMELSSLRSEDTAVYYCAREVPETAAFEYWGQGTLVTVSS VL: QSVLTQPPSVSGAPGQRVTISCTSSSSDIGAGLGVHWYQQLPGTAPKLLIEGYYNRPSGVPDRFSGSKSGTSASLTITGLLPEDEGDYYCQSYDGTLSALFGGGTKLTVLG
13 | 97 | 89 | 320-506 (antibody, human IgG1, name in Kabat numbering, V domains shown, full-length human IgG1, lambda) VH: QVQLVQSGAEVKKPGASVKVSCKASGYTFTSYDINWVRQAPGQGLEWMGWLNSNSGNTGYAQKFQGRVTMTADRSTSTAYMELSSLRSEDTAVYYCAREVPETAAFEYWGQGTLVTVSS VL: QSVLTQPPSVSGAPGQRVTISCTSSSSDIGAGLGVHWYQQLPGTAPKLLIEGYYNRPSGVPDRFSGSKSGTSASLTITGLLPEDEGDYYCQSYDGTLSALFGGGTKLTVLG
14 | 88 | 65 | 320-504 (antibody, human IgG1, name in Kabat numbering, V domains shown, full-length human IgG1, lambda) VH: QVQLVQSGAEVKKPGASVKVSCKASGYTFTSYDINWVRQAPGQGLEWMGWLYPNSGNTGYAQKFQGRVTMTADRSTSTAYMELSSLRSEDTAVYYCAREVPETAAFEYWGQGTLVTVSS VL: QSVLTQPPSVSGAPGQRVTISCTSSSSDIGAGLGVHWYQQLPGTAPKLLIEGYYNRPSGVPDRFSGSKSGTSASLTITGLLPEDEGDYYCQSYDGTLSALFGGGTKLTVLG
15 | 118 | 110 | 320-505 (antibody, human IgG1, name in Kabat numbering, V domains shown, full-length human IgG1, lambda) VH: QVQLVQSGAEVKKPGASVKVSCKASGYTFTSYDINWVRQAPGQGLEWMGWLNANSGNTGYAQKFQGRVTMTADRSTSTAYMELSSLRSEDTAVYYCAREVPETAAFEYWGQGTLVTVSS VL: QSVLTQPPSVSGAPGQRVTISCTSSSSDIGAGLGVHWYQQLPGTAPKLLIEGYYNRPSGVPDRFSGSKSGTSASLTITGLLPEDEGDYYCQSYDGTLSALFGGGTKLTVLG
16 | 27 | 24 | 320-507 (antibody, human IgG1, name in Kabat numbering, V domains shown, full-length human IgG1, lambda) VH: QVQLVQSGAEVKKPGASVKVSCKASGYTFTSYDINWVRQAPGQGLEWMGWLNQNSGNTGYAQKFQGRVTMTADRSTSTAYMELSSLRSEDTAVYYCAREVPETAAFEYWGQGTLVTVSS VL: QSVLTQPPSVSGAPGQRVTISCTSSSSDIGAGLGVHWYQQLPGTAPKLLIEGYYNRPSGVPDRFSGSKSGTSASLTITGLLPEDEGDYYCQSYDGTLSALFGGGTKLTVLG
17 | 41 | 6 | 320-503 (antibody, human IgG1, name in Kabat numbering, V domains shown, full-length human IgG1, lambda) VH: QVQLVQSGAEVKKPGASVKVSCKASGYTFTSYDINWVRQAPGQGLEWMGWLWPNSGNTGYAQKFQGRVTMTADRSTSTAYMELSSLRSEDTAVYYCAREVPETAAFEYWGQGTLVTVSS VL: QSVLTQPPSVSGAPGQRVTISCTSSSSDIGAGLGVHWYQQLPGTAPKLLIEGYYNRPSGVPDRFSGSKSGTSASLTITGLLPEDEGDYYCQSYDGTLSALFGGGTKLTVLG
